According to patent US20140087995A1 (published 2014):
Numbered stars: 1 amine (or outer) side, 2 acyl side, 3 side chain; on linkers, the order of the positions; unused ones are H or OH. Bridge positions count the residues as written; N and C are the ends. Side chains are listed from the residue outwards. Ends that are not written are not given here. * marks the point of attachment. C20 diacid = O=C(O)CCCCCCCCCCCCCCCCCCC(=O)*; γGlu = O=C(O)[C@H](CCC(=O)[*:2])N[*:1]

T1: human calcitonin receptor (human, UniProt P30988 25-474)
T1 construct: whole, on cells; also called hCTR; hCT
T1 sequence (looked up): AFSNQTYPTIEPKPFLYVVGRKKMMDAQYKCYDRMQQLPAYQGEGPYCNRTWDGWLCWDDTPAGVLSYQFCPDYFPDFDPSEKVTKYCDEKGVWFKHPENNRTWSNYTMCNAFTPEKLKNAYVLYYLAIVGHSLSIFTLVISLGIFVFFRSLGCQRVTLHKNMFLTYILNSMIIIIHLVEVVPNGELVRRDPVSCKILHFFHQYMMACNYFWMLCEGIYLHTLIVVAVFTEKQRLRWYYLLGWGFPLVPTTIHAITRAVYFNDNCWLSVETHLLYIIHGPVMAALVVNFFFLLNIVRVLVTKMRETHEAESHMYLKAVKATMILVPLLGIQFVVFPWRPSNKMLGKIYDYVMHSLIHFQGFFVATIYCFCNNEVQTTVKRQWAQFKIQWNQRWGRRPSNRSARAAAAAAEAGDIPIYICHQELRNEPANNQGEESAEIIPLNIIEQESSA


Legend:
[1] = target: T1, human calcitonin receptor; assay: ratio of IC50 at human calcitonin receptor to IC50 at human amylin receptor (SPA competition assays)
How it was run: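 Scintillation proximity competition binding on cell membranes at 35 ng/μL with SPA beads, in 50 mM Hepes pH 7.4, 1 mM CaCl2, 5 mM MgCl₂, 0.1% OA, 0.02% Tween20. Incubated 120 min at 25° C with shaking. IC₅₀ from one-site competition fit.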

[2] = target: T1, human calcitonin receptor; assay: SPA radioligand competition (125I-calcitonin), membranes of BHK cells with human calcitonin receptor
How it was run: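 BHK hCTR membranes 35 ng/μL + SPA beads 0.05 mg/well; buffer 50 mM Hepes pH 7.4, 1 mM CaCl2, 5 mM MgCl₂, 0.1% OA, 0.02% Tween20. 120 min, 25° C., shaking. Scintillation count; IC50 by one-site binding competition.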

Binder | Ratio hCT/hAmylin binding [1] | IC50 [2] [nM]
K([γGlu-C20 diacid])CNTATCATQRLAHFLRHSSPNFGAIPSSTPVGPNTY-NH2 (disulfide 2-7; N-terminus assumed; SMILES CC[C@H](C)[C@H](NC(=O)[C@H](C)NC(=O)CNC(=O)[C@H](Cc1ccccc1)NC(=O)[C@H](CC(N)=O)NC(=O)[C@@H]1CCCN1C(=O)[C@H](CO)NC(=O)[C@H](CO)NC(=O)[C@H](Cc1c[nH]cn1)NC(=O)[C@H](CCCNC(=N)N)NC(=O)[C@H](CC(C)C)NC(=O)[C@H](Cc1ccccc1)NC(=O)[C@H](Cc1c[nH]cn1)NC(=O)[C@H](C)NC(=O)[C@H](CC(C)C)NC(=O)[C@H](CCCNC(=N)N)NC(=O)[C@H](CCC(N)=O)NC(=O)[C@@H](NC(=O)[C@H](C)NC(=O)[C@@H]1CSSC[C@H](NC(=O)[C@@H](N)CCCCNC(=O)CC[C@H](NC(=O)CCCCCCCCCCCCCCCCCCC(=O)O)C(=O)O)C(=O)N[C@@H](CC(N)=O)C(=O)N[C@@H]([C@@H](C)O)C(=O)N[C@@H](C)C(=O)N[C@@H]([C@@H](C)O)C(=O)N1)[C@@H](C)O)C(=O)N1CCC[C@H]1C(=O)N[C@@H](CO)C(=O)N[C@@H](CO)C(=O)N[C@H](C(=O)N1CCC[C@H]1C(=O)N[C@H](C(=O)NCC(=O)N1CCC[C@H]1C(=O)N[C@@H](CC(N)=O)C(=O)N[C@H](C(=O)N[C@@H](Cc1ccc(O)cc1)C(N)=O)[C@@H](C)O)C(C)C)[C@@H](C)O) | 24.8 | 2.04
K([γGlu-γGlu-C20 diacid])CNTATCATQRLAEFLRHSSPNFGAIPSSTNVGRNTY-NH2 (disulfide 2-7; N-terminus assumed; SMILES CC[C@H](C)[C@H](NC(=O)[C@H](C)NC(=O)CNC(=O)[C@H](Cc1ccccc1)NC(=O)[C@H](CC(N)=O)NC(=O)[C@@H]1CCCN1C(=O)[C@H](CO)NC(=O)[C@H](CO)NC(=O)[C@H](Cc1c[nH]cn1)NC(=O)[C@H](CCCNC(=N)N)NC(=O)[C@H](CC(C)C)NC(=O)[C@H](Cc1ccccc1)NC(=O)[C@H](CCC(=O)O)NC(=O)[C@H](C)NC(=O)[C@H](CC(C)C)NC(=O)[C@H](CCCNC(=N)N)NC(=O)[C@H](CCC(N)=O)NC(=O)[C@@H](NC(=O)[C@H](C)NC(=O)[C@@H]1CSSC[C@H](NC(=O)[C@@H](N)CCCCNC(=O)CC[C@H](NC(=O)CC[C@H](NC(=O)CCCCCCCCCCCCCCCCCCC(=O)O)C(=O)O)C(=O)O)C(=O)N[C@@H](CC(N)=O)C(=O)N[C@@H]([C@@H](C)O)C(=O)N[C@@H](C)C(=O)N[C@@H]([C@@H](C)O)C(=O)N1)[C@@H](C)O)C(=O)N1CCC[C@H]1C(=O)N[C@@H](CO)C(=O)N[C@@H](CO)C(=O)N[C@H](C(=O)N[C@@H](CC(N)=O)C(=O)N[C@H](C(=O)NCC(=O)N[C@@H](CCCNC(=N)N)C(=O)N[C@@H](CC(N)=O)C(=O)N[C@H](C(=O)N[C@@H](Cc1ccc(O)cc1)C(N)=O)[C@@H](C)O)C(C)C)[C@@H](C)O, also called compound 88) | 46.5 | 34.9
K([γGlu-γGlu-C20 diacid])CNTATCATQRLANFLRHSSPNFGAIPSSTPVGPRTY-NH2 (disulfide 2-7; N-terminus assumed; SMILES CC[C@H](C)[C@H](NC(=O)[C@H](C)NC(=O)CNC(=O)[C@H](Cc1ccccc1)NC(=O)[C@H](CC(N)=O)NC(=O)[C@@H]1CCCN1C(=O)[C@H](CO)NC(=O)[C@H](CO)NC(=O)[C@H](Cc1c[nH]cn1)NC(=O)[C@H](CCCNC(=N)N)NC(=O)[C@H](CC(C)C)NC(=O)[C@H](Cc1ccccc1)NC(=O)[C@H](CC(N)=O)NC(=O)[C@H](C)NC(=O)[C@H](CC(C)C)NC(=O)[C@H](CCCNC(=N)N)NC(=O)[C@H](CCC(N)=O)NC(=O)[C@@H](NC(=O)[C@H](C)NC(=O)[C@@H]1CSSC[C@H](NC(=O)[C@@H](N)CCCCNC(=O)CC[C@H](NC(=O)CC[C@H](NC(=O)CCCCCCCCCCCCCCCCCCC(=O)O)C(=O)O)C(=O)O)C(=O)N[C@@H](CC(N)=O)C(=O)N[C@@H]([C@@H](C)O)C(=O)N[C@@H](C)C(=O)N[C@@H]([C@@H](C)O)C(=O)N1)[C@@H](C)O)C(=O)N1CCC[C@H]1C(=O)N[C@@H](CO)C(=O)N[C@@H](CO)C(=O)N[C@H](C(=O)N1CCC[C@H]1C(=O)N[C@H](C(=O)NCC(=O)N1CCC[C@H]1C(=O)N[C@@H](CCCNC(=N)N)C(=O)N[C@H](C(=O)N[C@@H](Cc1ccc(O)cc1)C(N)=O)[C@@H](C)O)C(C)C)[C@@H](C)O) | 48.6 | 42.8

More lines, now with the values ahead:

Ratio hCT/hAmylin binding [1] | IC50 [2] [nM] | Binder
28 | 32.5 | K([γGlu-γGlu-C20 diacid])CNTATCATQRLAEFLRHSSPNFGAIPSSTNVGSRTY-NH2 (disulfide 2-7; N-terminus assumed; SMILES CC[C@H](C)[C@H](NC(=O)[C@H](C)NC(=O)CNC(=O)[C@H](Cc1ccccc1)NC(=O)[C@H](CC(N)=O)NC(=O)[C@@H]1CCCN1C(=O)[C@H](CO)NC(=O)[C@H](CO)NC(=O)[C@H](Cc1c[nH]cn1)NC(=O)[C@H](CCCNC(=N)N)NC(=O)[C@H](CC(C)C)NC(=O)[C@H](Cc1ccccc1)NC(=O)[C@H](CCC(=O)O)NC(=O)[C@H](C)NC(=O)[C@H](CC(C)C)NC(=O)[C@H](CCCNC(=N)N)NC(=O)[C@H](CCC(N)=O)NC(=O)[C@@H](NC(=O)[C@H](C)NC(=O)[C@@H]1CSSC[C@H](NC(=O)[C@@H](N)CCCCNC(=O)CC[C@H](NC(=O)CC[C@H](NC(=O)CCCCCCCCCCCCCCCCCCC(=O)O)C(=O)O)C(=O)O)C(=O)N[C@@H](CC(N)=O)C(=O)N[C@@H]([C@@H](C)O)C(=O)N[C@@H](C)C(=O)N[C@@H]([C@@H](C)O)C(=O)N1)[C@@H](C)O)C(=O)N1CCC[C@H]1C(=O)N[C@@H](CO)C(=O)N[C@@H](CO)C(=O)N[C@H](C(=O)N[C@@H](CC(N)=O)C(=O)N[C@H](C(=O)NCC(=O)N[C@@H](CO)C(=O)N[C@@H](CCCNC(=N)N)C(=O)N[C@H](C(=O)N[C@@H](Cc1ccc(O)cc1)C(N)=O)[C@@H](C)O)C(C)C)[C@@H](C)O, also called compound 89)
60.8 | 10.3 | K([γGlu-C20 diacid])CNTATCATQRLAHFLRHSSPNFGAIPSSTNVGSNTY-NH2 (disulfide 2-7; N-terminus assumed; SMILES CC[C@H](C)[C@H](NC(=O)[C@H](C)NC(=O)CNC(=O)[C@H](Cc1ccccc1)NC(=O)[C@H](CC(N)=O)NC(=O)[C@@H]1CCCN1C(=O)[C@H](CO)NC(=O)[C@H](CO)NC(=O)[C@H](Cc1c[nH]cn1)NC(=O)[C@H](CCCNC(=N)N)NC(=O)[C@H](CC(C)C)NC(=O)[C@H](Cc1ccccc1)NC(=O)[C@H](Cc1c[nH]cn1)NC(=O)[C@H](C)NC(=O)[C@H](CC(C)C)NC(=O)[C@H](CCCNC(=N)N)NC(=O)[C@H](CCC(N)=O)NC(=O)[C@@H](NC(=O)[C@H](C)NC(=O)[C@@H]1CSSC[C@H](NC(=O)[C@@H](N)CCCCNC(=O)CC[C@H](NC(=O)CCCCCCCCCCCCCCCCCCC(=O)O)C(=O)O)C(=O)N[C@@H](CC(N)=O)C(=O)N[C@@H]([C@@H](C)O)C(=O)N[C@@H](C)C(=O)N[C@@H]([C@@H](C)O)C(=O)N1)[C@@H](C)O)C(=O)N1CCC[C@H]1C(=O)N[C@@H](CO)C(=O)N[C@@H](CO)C(=O)N[C@H](C(=O)N[C@@H](CC(N)=O)C(=O)N[C@H](C(=O)NCC(=O)N[C@@H](CO)C(=O)N[C@@H](CC(N)=O)C(=O)N[C@H](C(=O)N[C@@H](Cc1ccc(O)cc1)C(N)=O)[C@@H](C)O)C(C)C)[C@@H](C)O, also called compound 70) [N^ε1-[(4S)-4-carboxy-4-(19-carboxynonadecanoylamino)butanoyl]-[His14,Arg17,Pro21,Pro27]-h-amylin]
49.8 | 8.56 | K([γGlu-γGlu-C20 diacid])CNTATCATQRLADFLRHSSPNFGAIPSSTNVGPETY-NH2 (disulfide 2-7; N-terminus assumed; SMILES CC[C@H](C)[C@H](NC(=O)[C@H](C)NC(=O)CNC(=O)[C@H](Cc1ccccc1)NC(=O)[C@H](CC(N)=O)NC(=O)[C@@H]1CCCN1C(=O)[C@H](CO)NC(=O)[C@H](CO)NC(=O)[C@H](Cc1c[nH]cn1)NC(=O)[C@H](CCCNC(=N)N)NC(=O)[C@H](CC(C)C)NC(=O)[C@H](Cc1ccccc1)NC(=O)[C@H](CC(=O)O)NC(=O)[C@H](C)NC(=O)[C@H](CC(C)C)NC(=O)[C@H](CCCNC(=N)N)NC(=O)[C@H](CCC(N)=O)NC(=O)[C@@H](NC(=O)[C@H](C)NC(=O)[C@@H]1CSSC[C@H](NC(=O)[C@@H](N)CCCCNC(=O)CC[C@H](NC(=O)CC[C@H](NC(=O)CCCCCCCCCCCCCCCCCCC(=O)O)C(=O)O)C(=O)O)C(=O)N[C@@H](CC(N)=O)C(=O)N[C@@H]([C@@H](C)O)C(=O)N[C@@H](C)C(=O)N[C@@H]([C@@H](C)O)C(=O)N1)[C@@H](C)O)C(=O)N1CCC[C@H]1C(=O)N[C@@H](CO)C(=O)N[C@@H](CO)C(=O)N[C@H](C(=O)N[C@@H](CC(N)=O)C(=O)N[C@H](C(=O)NCC(=O)N1CCC[C@H]1C(=O)N[C@@H](CCC(=O)O)C(=O)N[C@H](C(=O)N[C@@H](Cc1ccc(O)cc1)C(N)=O)[C@@H](C)O)C(C)C)[C@@H](C)O)
